One data set relates to plasmid DNA. The data set can be described thus: Fluorescent dye (thiazole orange) displacement assay of peptide binding to DNA, Example 1. As to conditions: corresponding to a charge ratio of 1.8:1. The procedure:
Peptide DNA condensates were formed by adding 75 μg of DNA (pCMVL in 750 μl of 5 mM Hepes pH 7.4) to varying amounts of peptide (7.5 to 90 nmol in 750 μl of Hepes) while vortexing, followed by equilibration at RT for 1 h. Peptide binding to DNA was monitored by a fluorescent dye displacement assay (Wadhwa et al. 1997). A 1 μg aliquot of the peptide DNA condensate was diluted to 1 ml in Hepes containing 0.1 μM thiazole orange. The fluorescence of the intercalated dye was measured on an LS50B fluorimeter (Perkin Elmer, UK) in a microcuvette by exciting at 500 nm while monitoring emission at 530 nm.

The nature of data set [1]: QELS particle size and zeta potential of PEG-peptide DNA condensates and co-condensates, Example 1. Format: physicochemical. The procedure:
The particle size of peptide DNA condensates were analyzed at a DNA concentration of 50 μg/ml in Hepes by quasielastic light scattering (QELS). The particle surface change was determined by zeta potential analysis using a Brookhaven ZetaPlus™ (Brookhaven Instruments).
DNA co-condensates were prepared by add-mixing AlkCWK18 and PEG-VS-CWK18 in ratios ranging from 0 to 100 mol %, and condensing DNA at a charge ratio of 2.3:1 as described above. To establish the mol ratio of peptides bound to DNA, condensates were dialyzed in a fixed volume (0.5 ml) dialyzer for 75 h against water using a 100,000 MWCO membrane. Peptide DNA condensates in the retentate (0.5 ml) were dissociated by adding 50 μl of 5 M sodium chloride in 0.1% TFA. AlkCWK18 and PEG-VS-CWK18 were quantified by injecting 1 nmol of peptide (100 μl) onto analytical RP-HPLC eluted with 0.1% TFA and a gradient of acetonitrile (5 to 65% over 30 min) while detecting tryptophan by fluorescence (λex 280 nm, λem 350 nm). The peak integration areas were used to quantify AlkCWK18 and PEG-VS-CWK18 with reference to standard curves developed for each peptide.

Data set [2] in a line: Solubility of peptide DNA condensates: particle size as a function of DNA concentration. Format: physicochemical. The note with it: at 2 mg/ml DNA.
In data set [3] the test system is HepG2 cells. The data set can be described thus: In vitro luciferase gene expression, Example 1. Format: cell-based. As to conditions: HepG2, 24 h post-transfection, 10 μg DNA, 80 μM chloroquine. The procedure: HepG2 cells were plated at 1.5×10^5 cells per 35 mm well and grown to 40-70% confluence in MEM supplemented with 10% fetal calf serum (FCS). Peptide DNA condensates (10 μg of DNA) were added dropwise to triplicate sets of cells in 2% FCS containing 80 μM chloroquine. After 5 h incubation at 37° C., the media was replaced with MEM supplemented with 10% FCS, and luciferase expression was determined at 24 h. Cells were washed twice with ice-cold phosphate buffered saline (calcium and magnesium free) and then treated with 0.5 ml of ice-cold lysis buffer (25 mM Tris hydrochloride pH 7.8, 1 mM EDTA, 8 mM magnesium chloride, 1% Triton X-100, 1 mM DTT) for 10 min. The cell lysate was scraped, transferred to 1.5 ml micro centrifuge tubes, and centrifuged for 7 min at 13,000 g at 4° C. to pellet debris.
Lysis buffer (300 μl), sodium-ATP (4 μl of a 180 mM solution, pH 7, 4° C.) and cell lysate (100 μl, 4° C.) were combined in a test tube, briefly mixed and immediately placed in the luminometer. Luciferase relative light units (RLU) were recorded on a Lumat™ LB 9501 (Berthold Systems, Germany) with 10 sec integration after automatic injection of 100 μl of 0.5 mM D-luciferin (prepared fresh in lysis buffer without DTT). […]

For data set [4], the system named is HepG2 cells. The data set can be described thus: Cell binding of 125I-DNA condensates, Example 1. Format: cell-based. The note with it: 5 h transfection, 10 μg 125I-DNA condensates. The protocol: Iodinated plasmid DNA was prepared with specific activity of 300 nCi per μg of DNA as described previously (Teribesi et al., 1998). Prior to forming DNA condensates, the specific activity of the ^125I DNA was adjusted to 4.5 nCi per μg of DNA by combining with unlabeled plasmid. DNA condensates were prepared using AlkCWK18, PEG-SS-CWK18 or PEG-VS-CWK18 as described above. Peptide ^125I-DNA condensates (10 μg) were used to transfer HepG2 cells for 5 h according to the procedure described above. The radioactive media was removed, cells were washed with phosphate buffered saline, harvested with lysis buffer, and the cell-associated radioactivity was quantified by gamma counting.

Data set [5] deals with HepG2 cells. The data set can be described thus: Transient SEAP gene expression over 10 days. Format: cell-based. As to conditions: with chloroquine. The procedure:
HepG2 cells (3×10^5) were plated on 6×35 mm wells and grown for 48 h to 40% confluence in MEM supplemented with 10% fetal calf serum (FCS). Crosslinked DNA condensates (10 μg of DNA in 200 μL) were transfected in triplicate by drop wise addition to cells in 2% FCS either with or without 80 μM chloroquine followed by 5 h incubation, after which the media was replaced with 2 mL of MEM containing 10% fetal calf serum and allowed to incubate for an additional 19 h. Wells were sampled for 10 days at 24 h intervals by removing and freezing (−20° C.) the media and replacing it with 2 mL of fresh 10% FCS MEM.
The amount of SEAP in each well was determined using a chemiluminescent kit. Media (50 μL) was combined with 50 μl of dilution buffer followed by incubation at 65° C. for 30 min to denature endogenous alkaline phosphatase. […] After 30 min, the luminescence was measured with a 10 s integration on a Berthold Lumat™ LB 9501 luminometer. Light units were converted to μg/ml of SEAP using a standard curve constructed by adding known quantities of SEAP to cell homogenate. Background alkaline phosphatase production was determined from a 10 day null control that was subtracted from each data set.

Data set [6] can be described thus: QELS particle size and zeta potential of cross-linking peptide DNA condensates, Example 5. Format: physicochemical. The procedure:
The particle size of each peptide DNA condensate was determined by quasielastic light scattering (QELS) at a scatter angle of both 15° and 90° on a Brookhaven ZetaPlus™ particle sizer. Condensates were prepared at a DNA concentration of 50 μg/ml in 400 μl HBM at a stoichiometry of 0.4 nmol of peptide per μg of DNA corresponding to a charge ratio of approximately 2:1 for each. The mean diameter and population distribution were computed from the diffusion coefficient using a unimodal cummulant analysis supplied by the manufacturer.
The particle size and zeta peptide IV DNA condensates were determined by titrating 7.5 to 37.5 nmol of peptide with 75 μg of DNA in 1.5 ml of HBM to produce 50 μg/ml DNA condensates with charge ratio of 0.5-2.5. The zeta potential was averaged from 10 determines.

Data set [7] concerns HepG2 cells. Kind of data set: Luciferase reporter gene expression in HepG2 cells, Example 5. Format: cell-based. The procedure:
HepG2 cells (1.5×10^5) were plated on 6×35 mm wells and grown to 40-70% confluency in MEM supplemented with 10% FBS, penicillin and streptomycin (10,000 U/ml), sodium pyruvate (100 mM), and L-glutamine (200 mM). Transfections were performed in MEM (2 ml per 35 mm well) with 2% FBS and 80 μM chloroquine. Peptide DNA condensates (10 μg of DNA in 0.2 ml HBM) were added dropwise to triplicate wells. After a 5 h incubation at 37° C., the media was replaced with MEM supplemented with 10% FBS. After 24 h, cells were washed twice with ice-cold phosphate buffered saline (calcium and magnesium free) and then treated with 0.5 ml of ice-cold lysis buffer (25 mM Tris chloride pH 7.8, 1 mM EDTA, 8 mM magnesium chloride, 1% Triton X-100, 1 mM DTT) for 10 min. The cell lysate was scraped, transferred to 1.5 ml microcentrifuge tubes, and centrifuged for 7 min at 13,000 g at 4° C. to pellet debris.
Lysis buffer (300 μl), sodium-ATP (4 μl of a 180 mM solution, pH 7, 4° C.) and cell lysate (100 μl, 4° C.) were combined in a test tube, briefly mixed and immediately placed in the luminometer. Luciferase relative light units (RLU) were recorded on a Lumat™ LB 9501 (Berthold systems, Germany) with 10 sec integration after automatic injection of 100 μl of 0.5 mM D-luciferin (prepared fresh in lysis buffer without DTT). The RLU were converted in fmol using a standard curve generated by adding a known amount of luciferase (0.01 to 100 fmols with specific activity of 2.5 nU/fmol) to 35 mm wells containing 40-70% confluent HepG2 cells. The cells were processed as described above resulting in a standard curve with an average slope of 7.8×10^6 RLU per fmol of enzyme. Protein concentrations were measured by Bradford assay using bovine serum albumin as a standard (Bradford, 1976). The amount of luciferase recovered in each sample was normalized to milligrams of protein and reported as the mean and standard deviation obtained from triplicate transfections.
LipofectAce™ (Gibco BRL, 1:2.5 w/w dimethyl diotadecylammonium bromide and dioleoyl phosphatidylethanolamine) was used to mediate gene transfection according to the manufacturer's instructions. The ratio of DNA to LepofectAce™ was optimized for HepG2 cells. An optimal DNA/LipofectAce™ ratio was achieved by dissolving 10 μg of DNA in 100 μl serum free media (SFM) followed by adding 60 μl of LipofectAce™ prepared in 140 μl of SFM. The LipfectAce™ DNA complex was then diluted with 1.7 ml of SFM and used to transfect HepG2 cells for 5 h followed by replacing the transfecting media with media supplemented with 10% FBS. The cells were incubated for a total of 24 h, harvested and analyzed for luciferase as described above.
Background: Reporter assays use an easily measured gene product as a stand-in for the process of interest.

Bridges are numbered along the chain shown (N, C = ends). Where no end group is shown, it is not given here.

With “PEG-SS-CWK18: reducible PEG-peptide from PEG-orthopyridyl-disulfide (5 kDa) and the sulfhydryl of CWK18 (CWKKKKKKKKKKKKKKKKKK; not fully specified (residue 1))”, the “peptide:DNA stoichiometry at the asymptote of the dye displacement titration curve (relative DNA binding affinity)” value in the data set on plasmid DNA is 0.3 nmol per μg of DNA. The “zeta potential of DNA condensates” value in data set [1] (charge ratio 1.8:1) is reported as “+10 mV”. In addition, the “mean diameter of DNA condensates” value turned out to be 90 nm in data set [1] (charge ratio of 1.8:1 or higher, 50 μg/ml DNA in Hepes) and 88 nm in data set [2]. Moreover, in the data set on HepG2 cells [3], the “reduction of spontaneous gene transfer (luciferase expression) relative to AlkCWK18 DNA condensates” value was “five-fold”. Besides, in the data set with HepG2 cells [4], the “cell associated 125I-DNA, percent of dose” value came to 6.8%.
Consider “Lys18-Trp-Cys-S-S-Cys-Trp-Lys18 (KKKKKKKKKKKKKKKKKKWCCWKKKKKKKKKKKKKKKKKK; disulfide 20-21; also: disulfide-linked dimer of two CWK18 chains, no peptide bond between positions 20 and 21) [DiCWK18]”, for which, in the data set on HepG2 cells [5], the “more gene product relative to CWK18 DNA condensates” value is “approximately 10%”. For the same substance, in the data set on HepG2 cells [5] (HMW polylysine panel (FIG. 29B)), the “slope of the day 7-10 cumulative SEAP expression” value is given as 32.7 ng/mL. Besides, the “Particle Size Mean Diameter, Oxidized, 15°” value in data set [6] (HBM after 2 h incubation, 50 μg/ml DNA, 0.4 nmol peptide per μg DNA, scattering angle 15°) is 74 nm. For the same substance, the “Particle Size Mean Diameter, Oxidized, 90°” value in data set [6] (HBM after 2 h incubation, 50 μg/ml DNA, 0.4 nmol peptide per μg DNA, scattering angle 90°) was 68 nm. Besides, the “Particle Size Mean Diameter, Saline” value in data set [6] (HBM with added saline (0.15 M) after 15 min) is 171 nm. For the same substance, the “Particle Size Mean Diameter, Reduced” value in data set [6] (following addition of TCEP (1 mM)) was 153 nm. Further, the “inferiority to polylysine1007 as a DNA carrier (gene expression)” value in the data set on HepG2 cells [7] worked out at 5 fold.

The values are drawn from patent US6770740B1, “Crosslinked DNA condesate compositions and gene delivery methods” (The Regents of the University of Michigan, priority 1999, dated 2004).
